The supplement of paper PMC9112550, “Optimization of the antimicrobial peptide Bac7 by deep mutational scanning” (BMC Biology, 2022)

What follows are sequences tested on Escherichia coli TOP10 (assay: shrunken log2 fold change of peptide-encoding DNA abundance (4.5 h post-induction vs induction); higher = less antimicrobial activity (less host growth inhibition)). Conditions: time post-induction: 4.5 h; library: site-saturation at positions 5, 18, 19, 20.
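Also: peptides expressed intracellularly from a pBAD plasmid library in pooled LB shake-flask culture, induced with 0.3% L-arabinose, DNA abundance read by NGS, three biological replicates, DESeq2 with apeglm shrinkage.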

Sequence	shrunken log2 fold change
RRIRHRPPRLPRPRPRPQMLPRP	-0.0829
RRIRHRPPRLPRPRPRPQMTPRP	-0.104
RRIRHRPPRLPRPRPRPQNFPRP	-0.522
RRIRHRPPRLPRPRPRPQNPPRP	-0.0256
RRIRHRPPRLPRPRPRPQPGPRP	-0.0184
RRIRHRPPRLPRPRPRPQPRPRP	0.282
RRIRHRPPRLPRPRPRPQQCPRP	-0.0705
RRIRHRPPRLPRPRPRPQRQPRP	0.0621
RRIRHRPPRLPRPRPRPQSRPRP	-0.0223
RRIRHRPPRLPRPRPRPQTGPRP	-0.169
RRIRHRPPRLPRPRPRPQVFPRP	-0.00865
RRIRHRPPRLPRPRPRPQVPPRP	0.0019
RRIRHRPPRLPRPRPRPQVYPRP	-0.21
RRIRHRPPRLPRPRPRPQYQPRP	-0.496
RRIRHRPPRLPRPRPRPQYYPRP	-1.76
RRIRHRPPRLPRPRPRPRAIPRP	0.0852
RRIRHRPPRLPRPRPRPRCSPRP	-0.236
RRIRHRPPRLPRPRPRPRDQPRP	-0.0907
RRIRHRPPRLPRPRPRPRFPPRP	0.0956
RRIRHRPPRLPRPRPRPRGCPRP	0.387
RRIRHRPPRLPRPRPRPRHIPRP	-0.39
RRIRHRPPRLPRPRPRPRKEPRP	-0.0122

Sequence	shrunken log2 fold change
RRIRHRPPRLPRPRPRPRKSPRP	0.119
RRIRHRPPRLPRPRPRPRLQPRP	0.0915
RRIRHRPPRLPRPRPRPRMMPRP	-0.0987
RRIRHRPPRLPRPRPRPRPHPRP	0.365
RRIRHRPPRLPRPRPRPRQCPRP	-0.0969
RRIRHRPPRLPRPRPRPRQGPRP	0.093
RRIRHRPPRLPRPRPRPRQIPRP	-0.0442
RRIRHRPPRLPRPRPRPRRNPRP	-0.104
RRIRHRPPRLPRPRPRPRSHPRP	-0.221
RRIRHRPPRLPRPRPRPRTTPRP	0.136
RRIRHRPPRLPRPRPRPRVKPRP	-0.00109
RRIRHRPPRLPRPRPRPRVLPRP	-0.0249
RRIRHRPPRLPRPRPRPRWKPRP	0.00489
RRIRHRPPRLPRPRPRPRWMPRP	-0.209
RRIRHRPPRLPRPRPRPRWTPRP	0.0902
RRIRHRPPRLPRPRPRPRYPPRP	0.0331
RRIRHRPPRLPRPRPRPRYSPRP	-0.234
RRIRHRPPRLPRPRPRPSAIPRP	-0.00669
RRIRHRPPRLPRPRPRPSDCPRP	-0.126
RRIRHRPPRLPRPRPRPSEIPRP	-0.0493
RRIRHRPPRLPRPRPRPSEMPRP	-0.0714
RRIRHRPPRLPRPRPRPSFHPRP	-0.495

Sequence	shrunken log2 fold change
RRIRHRPPRLPRPRPRPSLGPRP	0.165
RRIRHRPPRLPRPRPRPSLNPRP	-0.51
RRIRHRPPRLPRPRPRPSLVPRP	-0.264
RRIRHRPPRLPRPRPRPSLYPRP	0.07
RRIRHRPPRLPRPRPRPSMSPRP	-0.0246
RRIRHRPPRLPRPRPRPSREPRP	0.0138
RRIRHRPPRLPRPRPRPSRSPRP	-0.202
RRIRHRPPRLPRPRPRPSTFPRP	-0.0458
RRIRHRPPRLPRPRPRPSTGPRP	-0.24
RRIRHRPPRLPRPRPRPSYDPRP	-0.0244
RRIRHRPPRLPRPRPRPSYYPRP	-1.56
RRIRHRPPRLPRPRPRPTARPRP	0.156
RRIRHRPPRLPRPRPRPTCKPRP	-0.015
RRIRHRPPRLPRPRPRPTFRPRP	0.0997
RRIRHRPPRLPRPRPRPTFYPRP	-0.183
RRIRHRPPRLPRPRPRPTGWPRP	0.841
RRIRHRPPRLPRPRPRPTGYPRP	-0.0185
RRIRHRPPRLPRPRPRPTHPPRP	0.155
RRIRHRPPRLPRPRPRPTHYPRP	-0.26
RRIRHRPPRLPRPRPRPTIQPRP	-0.169
RRIRHRPPRLPRPRPRPTIWPRP	-0.284
RRIRHRPPRLPRPRPRPTKHPRP	-0.142

Sequence	shrunken log2 fold change
RRIRHRPPRLPRPRPRPTKSPRP	-0.0287
RRIRHRPPRLPRPRPRPTLCPRP	-0.134
RRIRHRPPRLPRPRPRPTMFPRP	-0.0195
RRIRHRPPRLPRPRPRPTMGPRP	0.144
RRIRHRPPRLPRPRPRPTNFPRP	-0.398
RRIRHRPPRLPRPRPRPTNLPRP	-0.288
RRIRHRPPRLPRPRPRPTQNPRP	0.666
RRIRHRPPRLPRPRPRPTQYPRP	0.124
RRIRHRPPRLPRPRPRPTRDPRP	0.054
RRIRHRPPRLPRPRPRPTRVPRP	0.211
RRIRHRPPRLPRPRPRPTSAPRP	0.0939
RRIRHRPPRLPRPRPRPTSWPRP	0.091
RRIRHRPPRLPRPRPRPTSYPRP	-0.178
RRIRHRPPRLPRPRPRPTTDPRP	-0.136
RRIRHRPPRLPRPRPRPTVSPRP	-0.0706
RRIRHRPPRLPRPRPRPTYHPRP	-0.514
RRIRHRPPRLPRPRPRPTYVPRP	-0.143
RRIRHRPPRLPRPRPRPVADPRP	-0.209
RRIRHRPPRLPRPRPRPVARPRP	0.227
RRIRHRPPRLPRPRPRPVCLPRP	-0.0609
RRIRHRPPRLPRPRPRPVDIPRP	-0.167
RRIRHRPPRLPRPRPRPVEDPRP	-0.0354

Sequence	shrunken log2 fold change
RRIRHRPPRLPRPRPRPVEIPRP	-0.0173
RRIRHRPPRLPRPRPRPVEKPRP	-0.0342
RRIRHRPPRLPRPRPRPVEWPRP	0.123
RRIRHRPPRLPRPRPRPVHNPRP	0.154
RRIRHRPPRLPRPRPRPVIMPRP	-1
RRIRHRPPRLPRPRPRPVIQPRP	-0.00152
RRIRHRPPRLPRPRPRPVMCPRP	-0.175
RRIRHRPPRLPRPRPRPVNMPRP	-0.00401
RRIRHRPPRLPRPRPRPVNVPRP	0.0798
RRIRHRPPRLPRPRPRPVPGPRP	-0.163
RRIRHRPPRLPRPRPRPVPVPRP	0.0601
RRIRHRPPRLPRPRPRPVRSPRP	0.172
RRIRHRPPRLPRPRPRPVSAPRP	0.0852
RRIRHRPPRLPRPRPRPVSGPRP	-0.188
RRIRHRPPRLPRPRPRPVSKPRP	-0.0396
RRIRHRPPRLPRPRPRPVVIPRP	-0.759
RRIRHRPPRLPRPRPRPVVVPRP	-0.149
RRIRHRPPRLPRPRPRPVWCPRP	-0.0641
RRIRHRPPRLPRPRPRPVWEPRP	0.107
RRIRHRPPRLPRPRPRPVWIPRP	-0.0159
RRIRHRPPRLPRPRPRPVYRPRP	-0.305
